1 molecule from publication PMC5437297, “PTEN regulates glioblastoma oncogenesis through chromatin-associated complexes of DAXX and histone H3.3” (Nature Communications, 2017) can be followed below.

This assay concerns the target T1, human recombinant Flag-DAXX protein (human, UniProt Q9UER7 1-740).
T1 construct: DAXX (death-domain associated protein), human, recombinant; Commercial protein; no catalogue number is printed in the main text; source: bought: OriGene Technologies (recombinant protein)
Kind of assay: pull-down; 50 ng His-PTEN immobilised on 30 ul nickel beads, incubated with 200 ng Flag-DAXX for 2 h at 4 °C; bound proteins eluted and immunoblotted (the legend says IP anti-PTEN, IB anti-Flag). The conditions noted are these: both partners purified. (Immunoblotting shows a protein as a band on a membrane.)

T1 sequence (Q9UER7 whole entry): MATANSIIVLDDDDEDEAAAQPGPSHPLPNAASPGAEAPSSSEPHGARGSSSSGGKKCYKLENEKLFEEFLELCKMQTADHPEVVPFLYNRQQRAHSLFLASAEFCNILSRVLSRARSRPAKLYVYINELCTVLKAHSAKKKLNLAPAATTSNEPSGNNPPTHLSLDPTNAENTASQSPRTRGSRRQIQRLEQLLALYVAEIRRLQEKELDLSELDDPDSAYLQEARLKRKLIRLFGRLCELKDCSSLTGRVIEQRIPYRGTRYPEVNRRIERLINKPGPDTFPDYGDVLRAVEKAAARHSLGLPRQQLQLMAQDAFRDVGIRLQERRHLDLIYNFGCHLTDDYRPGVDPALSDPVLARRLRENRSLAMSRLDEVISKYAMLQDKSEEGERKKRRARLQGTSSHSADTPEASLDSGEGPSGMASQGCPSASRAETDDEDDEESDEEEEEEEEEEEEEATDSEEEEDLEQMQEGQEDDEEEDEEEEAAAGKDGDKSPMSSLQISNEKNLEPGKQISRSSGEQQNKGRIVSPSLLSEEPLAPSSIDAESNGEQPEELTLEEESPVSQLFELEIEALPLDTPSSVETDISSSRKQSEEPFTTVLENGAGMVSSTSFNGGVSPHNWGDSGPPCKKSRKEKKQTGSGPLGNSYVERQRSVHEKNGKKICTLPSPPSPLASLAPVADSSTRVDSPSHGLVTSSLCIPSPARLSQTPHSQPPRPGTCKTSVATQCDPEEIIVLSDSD

B1: human recombinant His-PTEN (natural protein)
chain: not shown
notes: PTEN (phosphatase and tensin homolog), human, recombinant; Commercial protein; no catalogue number is printed in the main text (reagents are in the Supplementary Methods); source: bought: ENZO Life Science (recombinant protein)
On to B1, for which the binding result was “binds”.
